From US20100298202A1, “BRI POLYPEPTIDES AND REDUCING AB AGGREGATION” (MAYO FOUNDATION FOR MEDICAL EDUCATION AND RESEARCH, priority 2007, published 2010)

Target: Aβ42 (Homo sapiens, UniProt P05067)
Assay: Aβ42 aggregation with oxidized or reduced BRI polypeptides (native gel/western blot, ELISA-based assay)
Assay type: biochemical
Details: oxidized form (no DTT), 2 μM polypeptide, 1.5 μM Aβ42, 5 hours at 37° C.
Procedure: FIG. 10. […] BRI polypeptides in DMSO were diluted into 150 mM NaCl, 20 mM Tris-HCl, pH7.4 (TBS) at a final concentration of 2 μM in the absence (OX) or presence (RED) of 2 mM DTT. Mixtures were incubated for 10 minutes at room temperature and then chilled to 0° C. A control samples lacking any BRI polypeptide were prepared identically using DMSO alone. Aβ42 in DMSO then was added to a final concentration of 1.5 μM, and the mixtures divided into two aliquots. One aliquot was incubated for 5 hours at 0° C., and the other was incubated at 37° C. to induce Aβ42 aggregation. At the end of the incubation, all samples were returned to 0° C. to stop further aggregation prior to analysis. Aggregation was assessed either by native gel electrophoresis followed by western blotting (panel A) or by the ELISA-based assay (panel B).

Aβ42, sequence (P05067 672-713 limits assumed): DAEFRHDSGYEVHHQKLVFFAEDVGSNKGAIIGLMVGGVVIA

Substance | Aβ42 aggregation in vitro
Bri24: C-terminal fragment of BRI1 (ITM2A), AIDKCWKIRHFPNEFIVETICICQD (SEQ ID NO: 5) | inhibit Aβ42 aggregation
Bri25: C-terminal fragment of BRI3 (ITM2C), GAICNCNAIRHFENTFVVETLICGVV (SEQ ID NO: 6) | inhibit Aβ42 aggregation
